The experiment relates to tobacco callus. In words: Expression of CalFad2-1 in tobacco callus, GC/GC-MS of fatty acid methyl esters. It counts as cell-based, Nicotiana tabacum cv. Xanthi. Conditions: stably transformed tobacco callus, 35S promoter. The text has this:
To characterize the activity of the CalFad2-1 in transgenic plant cells, the cDNA (ecs1c.pk009.n14) encoding this enzyme was expressed in tobacco callus with the gene under control of the cauliflower mosaic virus 35S promoter. The open-reading frame of the cDNA for CalFad2-1 was amplified by PCR to generate flanking […] restriction enzyme sites for cloning into the plant expression vector. The sequence of the sense oligonucleotide used in the amplification reaction was 5′-tttgagctc[…]-3′ (SEQ ID NO:16), and the sequence of the antisense oligonucleotide was 5′-tttggatcc[…]-3′ (SEQ ID NO: 17) [Note: the bases in lower case contain the added restriction sites, which are underlined, and flanking sequence to facilitate restriction enzyme digestion]. The design of the PCR primers was based on the sequence of the CalFad2-1 cDNA shown in SEQ ID NO:1. […]
Kanamycin-resistant tobacco callus that resulted from the transformation was examined for the presence of calendic acid arising from the activity of CalFad2-1. […] The recovered fatty acid methyl esters were then analyzed using a Hewlett-Packard 6890 chromatograph fitted with an Omegawax 320 column (30 m×0.32 mm inner diameter; Supelco). […] Fatty acid methyl prepared from the transgenic tobacco callus was analyzed with an HP6890 interfaced with a HP5973 (Hewlett-Packard) mass selective detector. […]

B1: CalFad2-1: Calendula officinalis fatty acid modifying enzyme (cDNA SEQ ID NO:1, protein SEQ ID NO:2) forming conjugated double bonds at delta-9 position (protein, listed as Calendula officinalis)
chain: MGKGASNKKVLERVPITKPPFEYNDLKKAVPPHCFSRPLFRSFYFLLHDIIVTCILFYVASNYIPMLPGFLSYIVWPVYWISQGVFLGRLWMIGHECGHHSFSNYRWVDDSVGFLIHTATLTPYFSFKYSHRNHHAHTNSMEYDEVHIPKRKSEALDLYFEFLGNNPMGLMITMLCKLTFGYAAYIMFNYTGKKHKSGGLASHFYPQSPLFNDSERNHVLFSDVGICIVLYACYRIVMVTGAMSAFYVYGIPWVIMSAILFAATYLQHTHPSIPHYDTTEWNWLRGALSTIDRDLGFFNMNKTHYHVIHHLFPVIPEYHAQEATEAIKPILGQYYKYDGTPFLKALWREMKDCIYVESDQGQKKQGIYWFKNKI
Consider B1, for which the “methyl calendic acid, amount of the total fatty acids” value is recorded as “up to 11.4 % of the total fatty acids”.
